{
  "source": "the RNAGym collection of RNA variant scans (doi:10.7554/elife.90254)",
  "parents": {"B1": {"name": "LINE1-full (parent)", "chain": "UACGUAGGUGGUUUUCCCCUGAUAGUGCUAAGGGGGCCUGGAAGUUUGGACUGGGCAGAGCUCAACACAGCGUGGCAAAGUGGCUGUGGCUAGACUGCCUCUCUGGAUUCCUCGUCACUCAGCAGGGCAUCUCUGAGAGAAAUGCC"}},
  "data": [
    {"variants_of": "B1", "experiment": "self-cleavage, relative activity (ratio to wild type); higher = more cleavage; in vitro, sequencing; the parent is a self-cleaving ribozyme", "values": [
      {"variant": "UACGUAGGUGGUUUUCCCCUGAUAGUGCUAAGGGGGCCUGGAAGUUUGGACUGGGCAGAGCUCAACACAGCGUGGGAGAGUGGCUGUGGCUAGACUGCCUCUCUGGAUUCCUCGUCACUCAGCAGGGCAUCUCUGAGAGAAAUGCC", "self-cleavage": 1.7},
      {"variant": "UACGUAGGUGGUUUUCCCCUGAUAGUGCUAAGGGGGCCUGGAAGUUUGGACUGGGCAGAGCUCAACACAGCGUGCCAAAGUGGCUGUGGCUAGACUGCCUCUCUGGAUUCCUCGUCACACAGCAGGGCAUCUCUGAGAGAAAUGCC", "self-cleavage": 0.95},
      {"variant": "UACGUAGGUGGUUUUCCCCUGAUAGUGCUAAGGGGGCCUGGAAGUUUGGACUGGGCAGAGCUCAACACAGCGUGUCAUAGUGGCUGUGGCUAGACUGCCUCUCUGGAUUCCUCGUCACUCAGCAGGGCAUCUCUGAGAGAAAUGCC", "self-cleavage": 1.49},
      {"variant": "UACGUAGGUGGUUUUCCCCUGAUAGUGCUAAGGGGGCCUGGAAGUUUGGACUGGGCAGAGCUCAACACAGCGUGACAAAGUGGCUGUGGCUAGACUGCCUCUCUGGAUUCCUCGUCACUCAGCAGGGCAUCUCUGAGAGAAAAGCC", "self-cleavage": 1.53},
      {"variant": "UACGUAGGUGGUUUUCCCCUGAUAGUGCUAAGGGGGCCUGGAAGUUUGGACUGGGCAGAGCUCAACACAGCGUGGUAAAGUGGCUGUGGCUAGACUGCCUCUCUGGAUUCCUCGUCACUCAGCAGGGCAUCUCUGAGAGAACUGCC", "self-cleavage": 0.92},
      {"variant": "UACGUAGGUGGUUUUCCCCUGAUAGUGCUAAGGGGGCCUGGAAGUUUGGACUGGGCAGAGCUCAACACAGCGUGGAAAAGCGGCUGUGGCUAGACUGCCUCUCUGGAUUCCUCGUCACUCAGCAGGGCAUCUCUGAGAGAAAUGCC", "self-cleavage": 1.46},
      {"variant": "UACGUAGGUGGUUUUCCCCUGAUAGUGCUAAGGGGGCCUGGAAGUUUGGACUGGGCAGAGCUCAACACAGCGUGGAAAAGGGGCUGUGGCUAGACUGCCUCUCUGGAUUCCUCGUCACUCAGCAGGGCAUCUCUGAGAGAAAUGCC", "self-cleavage": 0.33},
      {"variant": "UACGUAGGUGGUUUUCCCCUGAUAGUGCUAAGGGGGCCUGGAAGUUUGGACUGGGCAGAGCUCAACACAGCGUGCCAAAGUGGCUGUGGCUAGACUGCCUCUCUGGAUUCCUCGUCACUCAGCAGGGCAUCUCAGAGAGAAAUGCC", "self-cleavage": 0.49},
      {"variant": "UACGUAGGUGGUUUUCCCCUGAUAGUGCUAAGGGGGCCUGGAAGUUUGGACUGGGCAGAGCUCAACACAGCGUGACAAAGUGGCUGUGGCUAGACUGCCUCUCUGGAUUCCUCGUCACUCAGCAGGGCAUCUCUAAGAGAAAUGCC", "self-cleavage": 1.18},
      {"variant": "UACGUAGGUGGUUUUCCCCUGAUAGUGCUAAGGGGGCCUGGAAGUUUGGACUGGGCAGAGCUCAACACAGCGUGUCAAAGUGGCUGUGGCUAGACUGCCUCUCUGGAUUCCUCGACACUCAGCAGGGCAUCUCUGAGAGAAAUGCC", "self-cleavage": 1.06},
      {"variant": "UACGUAGGUGGUUUUCCCCUGAUAGUGCUAAGGGGGCCUGGAAGUUUGGACUGGGCAGAGCUCAACACAGCGUGGUAAAGUGGCUGUGGCUAGGCUGCCUCUCUGGAUUCCUCGUCACUCAGCAGGGCAUCUCUGAGAGAAAUGCC", "self-cleavage": 0.18},
      {"variant": "UACGUAGGUGGUUUUCCCCUGAUAGUGCUAAGGGGGCCUGGAAGUUUGGACUGGGCAGAGCUCAACACAGCGUGGAAAAGUGGCUGUGGCUAGACUGCCUCUCUGGAUUCCUCGUCACUCAGCAGGGCAUCUCUGAGAGAAAAGCC", "self-cleavage": 1.65},
      {"variant": "UACGUAGGUGGUUUUCCCCUGAUAGUGCUAAGGGGGCCUGGAAGUUUGGACUGGGCAGAGCUCAACACAGCGUGGUAAAGUGGCUGUGGCUAGACUGCCUCUCUGGAUUCCUCGUCACUCAGCAGGGCAUCUCUGAGGGAAAUGCC", "self-cleavage": 2.42},
      {"variant": "UACGUAGGUGGUUUUCCCCUGAUAGUGCUAAGGGGGCCUGGAAGUUUGGACUGGGCAGAGCUCAACACAGCGUGACAAAGUUGCUGUGGCUAGACUGCCUCUCUGGAUUCCUCGUCACUCAGCAGGGCAUCUCUGAGAGAAAUGCC", "self-cleavage": 1.07},
      {"variant": "UACGUAGGUGGUUUUCCCCUGAUAGUGCUAAGGGGGCCUGGAAGUUUGGACUGGGCAGAGCUCAACACAGCGUGACAAAGUGGCUGUGGCUAGACUGCCUCUCUGGAUUCCUCGUCACCCAGCAGGGCAUCUCUGAGAGAAAUGCC", "self-cleavage": 1.5},
      {"variant": "UACGUAGGUGGUUUUCCCCUGAUAGUGCUAAGGGGGCCUGGAAGUUUGGACUGGGCAGAGCUCAACACAGCGUGACAAAGUGGCUGUGGCUAGACUGCCUCUCUUGAUUCCUCGUCACUCAGCAGGGCAUCUCUGAGAGAAAUGCC", "self-cleavage": 0.67},
      {"variant": "UACGUAGGUGGUUUUCCCCUGAUAGUGCUAAGGGGGCCUGGAAGUUUGGACUGGGCAGAGCUCAACACAGCGUGGUAAAGUGGCUGUGGCUAGAUUGCCUCUCUGGAUUCCUCGUCACUCAGCAGGGCAUCUCUGAGAGAAAUGCC", "self-cleavage": 0.41},
      {"variant": "UACGUAGGUGGUUUUCCCCUGAUAGUGCUAAGGGGGCCUGGAAGUUUGGACUGGGCAGAGCUCAACACAGCGUGCCAAAGUGGCUGUGGCUAGACUGCCUCUCUGGAUUCCUCGUCACUCAGCAGGGCAUCUCUGAGGGAAAUGCC", "self-cleavage": 1.01},
      {"variant": "UACGUAGGUGGUUUUCCCCUGAUAGUGCUAAGGGGGCCUGGAAGUUUGGACUGGGCAGAGCUCAACACAGCGUGGAAAAGUGGCUGUGGCUAGACUGCCUCUCUGGAUUCCUCGUCACUCAGCGGGGCAUCUCUGAGAGAAAUGCC", "self-cleavage": 0.92}
    ]}
  ]
}
